Experimental findings from the supplement of paper PMC9170038 are described below.

The data set concerns MS2 coat protein. As to the kind of experiment: apparent KD of MS2 coat protein; designed switch direction (-1 OFF switch, 1 ON switch): -1; higher = weaker reporter binding. The method, boiled down:
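Apparent KD, taken as the median over clusters for each design, was obtained by curve-fitting normalised cluster fluorescence. Designed RNA switches had been transcribed on Illumina chips by stalled E. coli RNA polymerase and titrated with SNAP-549-labelled MS2 coat protein, doubling from 0.7 or 1.5 nM to 3 µM.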

Setting [1] is: input ligand: microRNA oligo, concentration not stated.
The mark [2] stands for this setting: Eterna round: R95, input ligand: microRNA oligo, concentration not stated.

For “UUAUCUACUGAGGAUAUUAUAUCACCCGACUGAUAAGAAGGCAGUACAUGAGGAUCACCCAUGUGGGUAGCCAU [Polaris10] (Eterna round: R97, puzzle: Exclusion 6)”, the “apparent KD of MS2 coat protein” value runs as follows: (input ligand: FMN 200 uM) 43 nM; (input ligand: none) 32.6 nM.
Regarding “UUAUUAUAUGUAGGAUAUGCAUAUUGUUGUUAUGCAGAAGGACAUGAGGAUCACCCAUGUAUAUUAUUGUUAUGUAUUAUAUAU [Title] (Eterna round: R96, puzzle: Exclusion NG 1)”, the “apparent KD of MS2 coat protein” value runs as follows: (input ligand: FMN 200 uM) 64.7 nM; under setting [1], 23.3 nM; (input ligand: none) 37.1 nM.
Consider “UUAUUAUAUGUAGGAUAUGCGUAUUAUUGUUAUGCAGAAGGACAUGAGGAUCACCCAUGUAUAUUAUUGUUAUGUAUUAUAUAU [Title] (Eterna round: R96, puzzle: Exclusion NG 1)”, for which, under setting [1], the “apparent KD of MS2 coat protein” value was determined as 26.6 nM.
The same measure, in the same setting: as for “UUAUUGUAUGUAGGAUAUGCAUAUUAUUAUUAUGCAGAAGGACAUGAGGAUCACCCAUGUAUAUUAUUAUUAUAUAUUAUAUAU [Title] (Eterna round: R96, puzzle: Exclusion NG 1)”, the figure is 24.6 nM.
On to “UUAUUUAGGUAGGAUAUCGAUACCAAUUACUAUCGAGAAGGGUCUACAUGAGGAUCACCCAUGUUAGCAUGUUU [LRO-Excl6-12-Rocketman] (Eterna round: R97, puzzle: Exclusion 6)”, for which the “apparent KD of MS2 coat protein” value runs as follows: (input ligand: FMN 200 uM) 26.4 nM; (input ligand: none) 24.9 nM.
Consider “UUAUUUAGUGUGAGGAUAUGCUGGUCCUUGGAUCAGCAGAAGGCACAUGAGGAUCACCCAUGUAAUAUAUUAAU [JL bmx4 3.06] (puzzle: Brourd's mod of Exclusion 4)”, for which the “apparent KD of MS2 coat protein” value under setting [2] amounted to 73.1 nM.
For “UUAUUUAGUGUGAGGAUAUGCUGGUCGAUAGAUCAGCAGAAGGCACAUGAGGAUCACCCAUGUAAUAUAUUAAU [Mat - Exclusion 4 - JL Mod - D33] (puzzle: Brourd's mod of Exclusion 4)”, the “apparent KD of MS2 coat protein” value by setting is: (Eterna round: R95, input ligand: FMN 200 uM) 395 nM; under setting [2], 50 nM; (Eterna round: R95, input ligand: none) 72.7 nM.
Consider “UUCACAUGGACAUGAGAUCACAUGAGGAUCACCCAUGUGAAUAACAAGCUUUUUGCUCGUCUUAUGUCCAAUAAUAU [Stov1/14-C3] (Eterna round: R97, puzzle: Sensor, turn-off variant 1)”, for which the “apparent KD of MS2 coat protein” value reads like this: (input ligand: FMN 200 uM) 13.1 nM; (input ligand: none) 13.1 nM.
“UUCAUGUAAGGAUAUGUAGUGAUGACGAAAUUUGUCGUUAAACAGAAGGUACAUGAGGAUCACCCAUGUAGCUA [EX4 B.9] (Eterna round: R97, puzzle: Exclusion 4)”: the “apparent KD of MS2 coat protein” value runs as follows: (input ligand: FMN 200 uM) 133 nM; (input ligand: none) 27.4 nM.
Turning to “UUCCAACAUGAGGAUCACCCAUGUCAGGAUAUCUAGGCUACUGCUACCACAAUUAGCUAGAGAAGGGACAAGAU [EX1 B.14] (Eterna round: R97, puzzle: Exclusion 1)”, the “apparent KD of MS2 coat protein” value runs as follows: (input ligand: FMN 200 uM) 26.1 nM; (input ligand: none) 19.5 nM.
For the sequence “UUCCUCACUUCUUUGUCUCACAUGAGGAUCACCCAUGUAAUAUAGGAUAUGCUUAGUAUUUCUAUGCAGAAGGAUAUUAGUUUU [JR_ExcNG3_Sub086] (Eterna round: R96, puzzle: Exclusion NG 3)”, the “apparent KD of MS2 coat protein” value by setting is: (input ligand: FMN 200 uM) 111 nM; under setting [1], 27.3 nM; (input ligand: none) 32.3 nM.
Regarding “UUCCUCUUUGUGAGGAUAUCGUCCGUUUUUUGUUACGAGAAGGCACAUGAGGAUCACCCAUGUUUUUUGUUUUU [JR_BMOE4_Sub076] (puzzle: Brourd's mod of Exclusion 4)”, under setting [2], the “apparent KD of MS2 coat protein” value was found to be 21.4 nM.
Take “UUCGGCGCAGGAUAUACAGUUCUGUGUUGAAUCGGCGCGGGACAUGAGGAUCACCCAUGUAGAAGGGUGUUGGG [-26.9, -23.2 kcal, A 22%] (Eterna round: R97, puzzle: Exclusion 2)”: the “apparent KD of MS2 coat protein” value is, setting by setting: (input ligand: FMN 200 uM) 220 nM; (input ligand: none) 538 nM.
As to “UUCGUGCAGCUUUGCUGUACGCGUACAUGAGGAUCACCCAUGUAGGAUAUGGUAGGCUUUGCUUACUAGAAGGAUAUUGUGAUC [JL EXNG3 1.32] (Eterna round: R96, puzzle: Exclusion NG 3)”, the “apparent KD of MS2 coat protein” value (input ligand: FMN 200 uM) amounted to 256 nM, the “apparent KD of MS2 coat protein” value under setting [1] was 80.9 nM and the “apparent KD of MS2 coat protein” value (input ligand: none) turned out to be 123 nM.
With “UUCGUGCUGCUUUGCUGUACGAGUACAUGAGGAUCACCCAUGUAGGAUAUGGACAUGAGGAUCACCCAGAAGGAUAUGUGUUGC [salish99_ExNG3_r04_508] (Eterna round: R96, puzzle: Exclusion NG 3)”, under setting [1], the “apparent KD of MS2 coat protein” value is 87.5 nM.
For “UUCGUGCUGCUUUGCUGUACGAGUACAUGAGGAUCACCCAUGUAGGAUAUGGUUCGCUUUGCGUGCUAGAAGGAUAUGUGUUGC [salish99_ExNG3_r04_507] (Eterna round: R96, puzzle: Exclusion NG 3)”, the “apparent KD of MS2 coat protein” value runs as follows: (input ligand: FMN 200 uM) 26.2 nM; under setting [1], 17.8 nM; (input ligand: none) 26 nM.
The like results for “UUCGUGUAAGGAUAUACGACUCAUCCCAAUGGGACGAGCACGUAGAAGGUACAUGAGGAUCACCCAUGUGCUCC [Eddianle] (Eterna round: R96, puzzle: Exclusion 4)” were, in that order, 284 nM, 33.3 nM and 39.9 nM.
On to “UUCUUGCGCGUGAGGAUAUGCUGAUCCCAGGAUUAGCAGAAGGCACAUGAGGAUCACCCAUGUCCAACUUGUCU [LRO-BmodExc4-15- Bluer = mod of Colors by Tatyana Zabanova] (Eterna round: R97, puzzle: Brourd's mod of Exclusion 4)”, for which the “apparent KD of MS2 coat protein” value came to 51.4 nM (input ligand: FMN 200 uM) and 38.6 nM (input ligand: none).
Regarding “UUGAAAGGUGUAGGAUAUGUAUGAGGAUCACCCAUUAAUAAAUUUUAACCACGAGGAUCACCCGUGUAGAAGGACACCUUUCAA [pwkr exNG2 2xF5 1xFMN.18] (Eterna round: R96, puzzle: Exclusion NG 2)”, the “apparent KD of MS2 coat protein” value reads like this: (input ligand: FMN 200 uM) 36.9 nM; under setting [1], 18 nM; (input ligand: none) 31.8 nM.
Consider “UUGAACAUAGGAUAUAGUUGUUUGUACAUGAGGAUCACCCAUGUUAUGUAUGUUUUGUUUCUAGAAGGAUGUUGAU [JR_E5_Sub002] (puzzle: Exclusion 5)”, for which the “apparent KD of MS2 coat protein” value under setting [2] came out at 32.5 nM.
In the case of “UUGACGUCGUCAGGAUAUAGUUUUAAUGUCAUGCGUAUGUUCUUACAUGAGGAUCACCCAUGUCGCUAGAAGGGACUAAAGAUU [JR_ExcNG2_Sub011] (Eterna round: R96, puzzle: Exclusion NG 2)”, the “apparent KD of MS2 coat protein” value was 27.6 nM (input ligand: FMN 200 uM), 23.5 nM under setting [1] and 34.7 nM (input ligand: none).
Regarding “UUGAUGUCAUCAGGAUAUAGUAUUUAAGACAUAUCUUCUUUCAAACAUGAGGAUCACCCAUGUCGCUAGAAGGGAUGAUUGAUU [JR_ExcNG2_Sub084] (Eterna round: R96, puzzle: Exclusion NG 2)”, the “apparent KD of MS2 coat protein” value under setting [1] came to 11.9 nM.
Turning to “UUGAUGUGAGGAUAUAUAUGGUUGUUUUUUUAUUUUUUAUUACUUGAGGAUCACCCAAGUAGAAGGCGCUACGU [JR_Ex2_Sub068] (Eterna round: R97, puzzle: Exclusion 2)”, the “apparent KD of MS2 coat protein” value runs as follows: (input ligand: FMN 200 uM) 25.5 nM; (input ligand: none) 29.5 nM.
Regarding “UUGCAGUCGUCAGGAUAUAGUAUUACGGCCUUUCAUUUCUUCAUACAUGAGGAUCACCCAUGUCGCUAGAAGGGAUUAUCGCUU [salish99_ExNG2_r04_107] (Eterna round: R96, puzzle: Exclusion NG 2)”, the “apparent KD of MS2 coat protein” value is, setting by setting: (input ligand: FMN 200 uM) 16.4 nM; under setting [1], 14.6 nM; (input ligand: none) 20.6 nM.
The like results for “UUGGUUGUGGUAGGAUAUCCGUUGGAAACUGUUGGAGAAGGACCACAGUCACUGGGUCCUUGUUUGGUGGAGUGGAAGAACCAU [pwkr exNG1 F6.16] (Eterna round: R96, puzzle: Exclusion NG 1)” were, in that order, 453 nM, 294 nM and 329 nM.
Regarding “UUGUACCGGUGAGGAUAUUUUUAAUAGAACUUUAUGAUAUACAUGAGGAUCACCCAUGUUACUUUAAAGAAGGCAUCGGAUUAU [JL JR Sub091 mod 1] (Eterna round: R96, puzzle: Exclusion NG 2)”, the “apparent KD of MS2 coat protein” value under setting [1] was 12.9 nM.
For the sequence “UUGUGCACGCUGCGAUCCUACAUGAGGAUCACCCAUGUGGUCUGGUGGCGUGGGUCACCGGACUUGGCUCGUCUUGG [salish99_S_TOV1_R5_076] (Eterna round: R97, puzzle: Sensor, turn-off variant 1)”, the “apparent KD of MS2 coat protein” value runs as follows: (input ligand: FMN 200 uM) 126 nM; (input ligand: none) 138 nM.
The like results for “UUGUUACAUGAGGAUCACCCAUGUGAGGAUAUGGUUCAGUACUGUAAUGUAAAGUACUCCAGAAGGCACAUGUU [1st #28] (Eterna round: R97, puzzle: Exclusion 1)” were, in that order, 693 nM and 264 nM.
Turning to “UUGUUAUAUGUAGGAUAUGCGUGUUGUUAUUAGGCAGAAGGACAUGAGGAUCACCCAUGUAUGUUGUUGUUAUAUAUUAUAUAU [Title] (Eterna round: R96, puzzle: Exclusion NG 1)”, the “apparent KD of MS2 coat protein” value is, setting by setting: (input ligand: FMN 200 uM) 56.3 nM; under setting [1], 28.3 nM; (input ligand: none) 58.8 nM.
Regarding “UUGUUCUGAGGAUAUACAUGAGGAUCACCCAUGUGUUUCAGCUAGGAGACUAGCGAAAGUAGAAGGCUGUACUC [salish99_ex3_r4_017] (Eterna round: R97, puzzle: Exclusion 3)”, the “apparent KD of MS2 coat protein” value was 26.9 nM (input ligand: FMN 200 uM) and 24.9 nM (input ligand: none).
“UUUAAGGGAAUUAAGAUCACAUGAGGAUCACCCAUGUAUAUAUAGGAUAUCAGCUCGUUUAGAGCUGAGAAGGAUAUAUACAUA [ExNG3/6-A2] (Eterna round: R96, puzzle: Exclusion NG 3)”: the “apparent KD of MS2 coat protein” value by setting is: (input ligand: FMN 200 uM) 162 nM; under setting [1], 83.8 nM; (input ligand: none) 155 nM.
